Assay results taken from PMC2655673.

How the values were obtained:
Assay in all cases: SFM DNA tethering
[1] = biological target: RAD50;NBS1 (Homo sapiens;Homo sapiens) (UniProt Q92878+O60934)
[2] = biological target: RAD50;MRE11;NBS1 (Homo sapiens;Homo sapiens;Homo sapiens) (UniProt Q92878+P49959+O60934)
[3] = biological target: RAD50;MRE11 (Homo sapiens;Homo sapiens) (UniProt Q92878+P49959)

Question: Which binding signal (% DNA in tethered complexes) [1] does the source give for 3.0-kb linear DNA fragment here?
Answer: The binding signal (% DNA in tethered complexes) was 30.

Question: And the binding signal (% DNA in tethered complexes) [2]?
Answer: The binding signal (% DNA in tethered complexes) was 20.

Question: What about the binding signal (% DNA in tethered complexes) [3] of the same substance?
Answer: Its binding signal (% DNA in tethered complexes) is 16.
